This assay has as its system H1 hESCs. Briefly: Generation of pancreatic progenitors (stages 1-4) and PP 3D clusters, flow cytometry for PDX1/NKX6.1. The format is cell-based, human. On the procedure: hESCs were maintained as feeder-free in mTeSR™1 (STEMCELL Technologies Inc.) according to the manufacturer's instructions. Before differentiation, adherent hESCs (at ˜90% confluence) were rinsed with PBS and then incubated with Accutase (Millipore) for 6-8 min at 37° C. Dissociated single cells were rinsed twice with DMEM/F12 and spun at 300 g for 3 min. The resulting cells were re-suspended in mTeSR™1 which was supplied with 10μM Y27632 (Sigma-Aldrich), and seeded on 1:30 diluted Matrigel (BD Biosciences)-coated dishes at a density of 55,000 cells/cm^2. The next day, the medium was exchanged for mTeSR™MI and maintained for one more day prior to differentiation initiation.
Stage 1: Definitive Endoderm (3 days). […] Each 800 ml MS12 medium was made with 744 ml MCDB131 medium (ThermoFisher), 3.2 ml 45% glucose (Sigma), 20 ml 20% fat-acid free BSA, and 16 ml 7.5% sodium bicarbonate (Gibco).
Stage 2: Posterior Foregut (3 days): after PBS rinse, cells are exposed to MS12 medium with KGF (Peprotech, 50 ng/ml), B27 (Gibco, 100×), Vitamin C (Vc, 0.25 mM, sigma) and dorsomorphin (0.75 μM). Cells were fed with fresh medium daily.
Stage 3: Pancreatic endoderm (3 days): After PBS rinse, cells were exposed to DMEM with B27 (100×), retinoic acid (RA, 2 μM, Sigma), Noggin (100 ng/ml, Peprotech), SANTI (0.25 μM, sigma), Vitamin C (Vc, 0.25 mM, sigma), Pen/Strep (100×, Gibco) and Glutamax (100×, Gibco). Cells were fed with fresh medium every other day.
Stage 4: Pancreatic progenitor (3-4 days): After PBS rinse, cells were exposed to DMEM with B27 (100×), EGF (100 ng/ml, Peprotech)+Nicotinamide (NICO, 10 mM; Sigma)+Noggin (100ng/ml)+Vc (0.25 mM). Cells were fed with fresh medium every other day.
V-bottom plate based aggregation: stage-4 cells were rinsed with PBS and then incubated with Accutase (Millipore) for 10-15 min at 37° C. Dissociated single cells were rinsed twice with DMEM/F12 and spun at 300 g for 3 min. The resulting cells were re-suspended in an aggregation medium supplied with 10μM Y27632 (Sigma-Aldrich). Cell solution with 0.1-0.4 (according to experimental design) million cells was added into each well of V-bottom 96-well plate, followed by a spun at 300 g for 3 min. The plate was put into 37° C. incubator for 8-12 hours to form clusters. Aggregation medium was made of V4b-Medium+heparin (Sigma, H3149, 10 μg/ml)+ZnSO4 (10 μM, sigma, Z0251)+LDN193189 (LDN, Tocris, 100 nM)+T3 (1 μM, Sigma, T6397)+RA ([…])+SANTI (0.25 μM: Tocris)+GABA (1 mM, Sigma)+human EGF (100 ng/ml, Peprotech)+NICO (10 mM)+VC (0.25 mM). V4b-Medium (800 ml) was made of 360 ml MCDB 131 medium+180 ml F12 medium+180 ml KO-DMEM medium+3.9 ml Glucose (45%, Sigma)+80ml 20% FF-BSA+16 ml Sodium Bicarbonate (7.5%)+4 ml ITX+8 ml Pen/Strep+8ml Glutamax: all items were purchased from Thermo Fisher Scientific unless otherwise indicated.
Single-cell suspension from cell cultures: Differentiated hESC cultures were rinsed with PBS and then incubated with 0.25% trypsin-EDTA (Life Technologies) at 37° C. for 1-3 minutes. The trypsin was neutralized with MEF medium. The dissociated cells were rinsed twice in PBS or DMEM/F12 medium for further analysis. For intracellular antibody staining, single cells were fixed in 200 μL of BD Cytofix/Cytoperm Buffer (BD Biosciences) at 4° C. for 20 minutes followed by three washes in BD Perm/Wash Buffer. Fixed cells were incubated in 150 μL of primary antibody buffer at 4° C. for 1 hour, followed by 30 minutes in a secondary antibody (if there is a secondary antibody) buffer after being rinsed twice in Perm/Wash Buffer. Stained cells were washed twice in Perm/Wash Buffer prior to analyses. The acquired data were analyzed by FlowJo.
Efficient generation of PP 3D-clusters is responsible for generating functional βcells. An hPSC reporter line with NKX6.1-NLS-GFP has been generated by homologous recombination (FIG. 1A and data not shown), which aids in the study of functional β cell production protocols. […]
(In flow cytometry, cells or beads pass a laser one at a time.)

Where [1] appears, read: Constant high-dose of Activin-A (115-115-115 ng/ml day 1-day 2-day 3).
Setting [2] is: Constant low-dose of Activin-A (100-100-100 ng/ml day 1-day 2-day 3).
[3] abbreviates: Decreasing gradient dose of Activin-A (115-110-100 ng/ml day 1-day 2-day 3).

B1: Activin-A: a TGFβ family member used at stage 1 (protein, UniProt P08476 311-426, looked up)
Inhibin beta A chain: GLECDGKVNICCKKQFFVSFKDIGWNDWIIAPSGYHANYCEGECPSHIAGTSGSSLSFHSTVINHYRMRGHSPFANLKSCCVPTKLRPMSMLYYDDGQNIIKKDIQNMIVEECGCS
modifications: Inhibin beta A chain
Consider B1, for which, under setting [1], the NKX6.1-positve cells is reported as ~20%-50%, the PDX1-positve cells was approximately 90% and the PDX1-postive/NKX6.1-positve cells is recorded as ~20%-50%. In addition, under setting [2], the NKX6.1-positve cells is listed as ~15%-50%, the PDX1-positve cells was ~50%-80% and the PDX1-postive/NKX6.1-positve cells was ~15%-50%. Further, under setting [3], the NKX6.1-positve cells is given as approximately 80%, the PDX1-positve cells is reported as approximately 93% and the PDX1-postive/NKX6.1-positve cells is given as approximately 80%. Further, the “cell density and cell heterogeneity at stage 4” value (constant low-dose Activin-A) is “appropriate cell density but resulting in high cell heterogeneity at stage 4”. Moreover, the “cell proliferation and cell density” value (high-dose Activin-A) was “severely reduced cell proliferation and resulted in suboptimal cell density”.

Values taken from patent US20240182864A1, “NOVEL CHEMICAL COMBINATIONS AND METHODS OF USE THEREOF, TOWARDS DIFFERENTIATION OF HUMAN PROGENITOR CELLS INTO FUNCTIONAL BETA CELLS” (Salk Institute for Biological Studies, priority 2021, published 2024).
